To fix the notation:
B1: CPEB3 Ribozyme (parent)
chain: GGGGGCCACAGCAGAAGCGUUCACGUCGCGGCCCCUGUCAGAUUCUGGUGAAUCUGCGAAUUCUGCUGU

Variants of B1 are the subject of the series. Nature of the series: self-cleavage, relative activity (ratio to wild type); higher = more cleavage; co-transcriptional.
Regarding UGGGGCCACAGCAGAAGCGUUCACGUCUCGGCCCCUGUCAGAUUCUGGUGAAUCUGCGAAUUCUGCUGU [G1U G28U], the self-cleavage came out at 0.0723.

On to CGGGGCCACAGCAGAAGCGUACACGUCGCGGCCCCUGUCAGAUUCUGGUGAAUCUGCGAAUUCUGCUGU [G1C U21A], for which the self-cleavage came to 0.246.

UGGGGCUACAGCAGAAGCGUUCACGUCGCGGCCCCUGUCAGAUUCUGGUGAAUCUGCGAAUUCUGCUGU [G1U C7U]: the self-cleavage came out at 0.0859.

For CGGGGCCACAGCAGAAGCGUUCACGUCGCGGCCCCGGUCAGAUUCUGGUGAAUCUGCGAAUUCUGCUGU [G1C U36G], the self-cleavage is 0.297.

Take UUGGGCCACAGCAGAAGCGUUCACGUCGCGGCCCCUGUCAGAUUCUGGUGAAUCUGCGAAUUCUGCUGU [G1U G2U]: the self-cleavage amounted to 0.392.

For UGGGGCCACAGAAGAAGCGUUCACGUCGCGGCCCCUGUCAGAUUCUGGUGAAUCUGCGAAUUCUGCUGU [G1U C12A], the self-cleavage turned out to be 0.0761.

For the variant CGGGGCCACAGCAGAAGCGUUCACGUCGCGGCCCCUGUCAGAUUCUGGUGAACCUGCGAAUUCUGCUGU [G1C U53C], the self-cleavage stood at 0.0726.

Regarding CGGGGCCACAGCAGAAGCGUUCACGUCGCGGCCCCUGUCAGAUUCUGGUGAAUCUGCGAAUUCGGCUGU [G1C U64G], the self-cleavage stood at 0.204.

Regarding UGGGGCCACAGCAGUAGCGUUCACGUCGCGGCCCCUGUCAGAUUCUGGUGAAUCUGCGAAUUCUGCUGU [G1U A15U], the self-cleavage came out at 0.0945.

Take UGGGGCCACAGCAGAAGCGUUCACGUCGCGGCCCCUGUCAGAUUCUGGUGAAUUUGCGAAUUCUGCUGU [G1U C54U]: the self-cleavage was found to be 0.136.

On to UGGGGCCACAGCAGAAGCGUUCACGUCGCGGCCCCUGUCGGAUUCUGGUGAAUCUGCGAAUUCUGCUGU [G1U A40G], for which the self-cleavage was found to be 0.0819.

With UGGGGCCACAGCAGAAGCGUUCACGUCGCGGCCCCUGUCUGAUUCUGGUGAAUCUGCGAAUUCUGCUGU [G1U A40U], the self-cleavage was 0.0879.

As to UGGGGCCACAGCAGAAGCGUUCACGUCGCGGCCCCAGUCAGAUUCUGGUGAAUCUGCGAAUUCUGCUGU [G1U U36A], the self-cleavage worked out at 0.0485.

Take UGGGGCCACAGCGGAAGCGUUCACGUCGCGGCCCCUGUCAGAUUCUGGUGAAUCUGCGAAUUCUGCUGU [G1U A13G]: the self-cleavage came to 0.0953.

Regarding UGGGGCCACAGCCGAAGCGUUCACGUCGCGGCCCCUGUCAGAUUCUGGUGAAUCUGCGAAUUCUGCUGU [G1U A13C], the self-cleavage was found to be 0.0972.

As for CGGGGCCACAGCAGAAGCGUUCACGUCGCGGCCCCUGACAGAUUCUGGUGAAUCUGCGAAUUCUGCUGU [G1C U38A], the self-cleavage came out at 0.267.

As to CGGGGCCACAGCAGAAGCGUUCACGUCGCGGCCCCUGUCAGAUUCUGGUGAAUCUGCGAAUUCUGCGGU [G1C U67G], the self-cleavage was 0.312.

UGGGGCCACAGCAGAAGAGUUCACGUCGCGGCCCCUGUCAGAUUCUGGUGAAUCUGCGAAUUCUGCUGU [G1U C18A]: the self-cleavage was found to be 0.0311.

Turning to UGGGGCCACACCAGAAGCGUUCACGUCGCGGCCCCUGUCAGAUUCUGGUGAAUCUGCGAAUUCUGCUGU [G1U G11C], the self-cleavage came to 0.118.

As to UGGGGCCACAUCAGAAGCGUUCACGUCGCGGCCCCUGUCAGAUUCUGGUGAAUCUGCGAAUUCUGCUGU [G1U G11U], the self-cleavage is 0.129.

For CGGGGCCACAGCAGAAGCGUUCACGUCGCGGCCCCUGUCAGAUUCUGGUGAAUCUGCGAAUUCUGCUGG [G1C U69G], the self-cleavage is 0.409.

For CGGGGCCACAGCAGAAGCGUUCACGUCGCGGCCCCUGUCAGAUUCUGGUGAAUCUGCGAAUUCUGCUGC [G1C U69C], the self-cleavage amounted to 0.396.

With CGGGGCCACAGCAGAAGCGUUCACGUCGCGGCCCCUGUCAGAUCCUGGUGAAUCUGCGAAUUCUGCUGU [G1C U44C], the self-cleavage was found to be 0.232.

For UGGGGCCACAGCAGAAGCGUUCACGUCGCGGCCCCUGUCAGAUUCUCGUGAAUCUGCGAAUUCUGCUGU [G1U G47C], the self-cleavage was found to be 0.0959.

Turning to UGGGGCCACAGCAGAAGCGUUCACGUCGCGGCCCCUGACAGAUUCUGGUGAAUCUGCGAAUUCUGCUGU [G1U U38A], the self-cleavage was found to be 0.0964.

Regarding UGGGGCCACAGCAGAAGCGUUCACGUCGCGGCCCCUGUCAGAUUAUGGUGAAUCUGCGAAUUCUGCUGU [G1U C45A], the self-cleavage came out at 0.11.

For the variant UGGGGCCACAGCAGAAGCGUUCAUGUCGCGGCCCCUGUCAGAUUCUGGUGAAUCUGCGAAUUCUGCUGU [G1U C24U], the self-cleavage was determined as 0.0825.

As to UGGGGCCACAGCAGAAGCGUUCAAGUCGCGGCCCCUGUCAGAUUCUGGUGAAUCUGCGAAUUCUGCUGU [G1U C24A], the self-cleavage was 0.0939.

UGGGGCCACAGCAGAAGCGUUCACGUCGCGGCCCCUGUCAGAUUCUGGUGAAUCUGAGAAUUCUGCUGU [G1U C57A]: the self-cleavage stood at 0.0933.

Consider UGGGGCCACAGCAGAAGCGUUCACGUCGCGGCCCCUGUCAGAUUCUGGUGAAUCUGCGAAUUGUGCUGU [G1U C63G], for which the self-cleavage was 0.111.

With UGGGGCCACAGCAGAAGCGCUCACGUCGCGGCCCCUGUCAGAUUCUGGUGAAUCUGCGAAUUCUGCUGU [G1U U20C], the self-cleavage came to 0.068.

On to UGGGGCCACAGCAGAAGCGGUCACGUCGCGGCCCCUGUCAGAUUCUGGUGAAUCUGCGAAUUCUGCUGU [G1U U20G], for which the self-cleavage stood at 0.0369.

In the case of CGGGGCCACAGCAGAAGCGUUCACGUCGCGGCCCCUGUCAGAUUCUGGUGAAUCUGCGAAAUCUGCUGU [G1C U61A], the self-cleavage is 0.253.

UGGGGCCACAGCAGAAGCGUUCACGUCGCGGCCCCUGUCAGAUUCUGGUGACUCUGCGAAUUCUGCUGU [G1U A52C]: the self-cleavage came to 0.112.

With UGGGGCCACAGCAGAAGCGUUCACGUCGCGGCCCCUGUGAGAUUCUGGUGAAUCUGCGAAUUCUGCUGU [G1U C39G], the self-cleavage was found to be 0.103.

UGGGGCCACAGCAGAAGCGUUCACGUUGCGGCCCCUGUCAGAUUCUGGUGAAUCUGCGAAUUCUGCUGU [G1U C27U]: the self-cleavage amounted to 0.0539.

For the variant UGGGGCCACAGCAUAAGCGUUCACGUCGCGGCCCCUGUCAGAUUCUGGUGAAUCUGCGAAUUCUGCUGU [G1U G14U], the self-cleavage worked out at 0.0869.

As for UGGGGCCACAGCAGAAGCGUUCACGUCGCGGCCCCUGUCAGAUUCUGGUGAAUCUGCAAAUUCUGCUGU [G1U G58A], the self-cleavage stood at 0.0859.

With UGGGGCCACAGCAGAAGCGUUCACGUCGCGGCCCCUGUCAGAUUCUGGUGAACCUGCGAAUUCUGCUGU [G1U U53C], the self-cleavage was found to be 0.143.

Source of the values: the RNAGym collection of RNA variant scans (doi:10.7554/elife.80360).
